Bridge positions count the residues as written; N and C are the ends. Square brackets hold non-standard residues; d marks the D form. Ends that are not written are not given here. * marks the point of attachment. Pro(trans-4-F) = O=C(O)[C@@H]1C[C@@H](F)CN1; Oic = O=C(O)[C@@H]1C[C@@H]2CCCC[C@@H]2N1; Cyclopropylacetic acid = O=C(CC1CC1)*; Gly(cPent) = N[C@H](C(=O)O)C1CCCC1; Hyp = O=C(O)[C@@H]1C[C@@H](O)CN1; NMeI = CC[C@H](C)[C@H](NC)C(=O)O; aIle = CC[C@@H](C)[C@H](N)C(=O)O; tBuAla = CC(C)(C)C[C@H](N)C(=O)O; aThr = C[C@H](O)[C@H](N)C(=O)O; Chg = N[C@H](C(=O)O)C1CCCCC1; αMeP = C[C@@]1(C(=O)O)CCCN1; NMeC = CN[C@@H](CS)C(=O)O; Abu = CC[C@H](N)C(=O)O; Aib = CC(C)(N)C(=O)O; Sar = CNCC(=O)O

Sequences and labels used below:
T1: recombinant rat MASP1 active protease (amino acids 302-704, C-terminal His Tag) (rat, UniProt Q8CHN8 302-704)
T1 sequence: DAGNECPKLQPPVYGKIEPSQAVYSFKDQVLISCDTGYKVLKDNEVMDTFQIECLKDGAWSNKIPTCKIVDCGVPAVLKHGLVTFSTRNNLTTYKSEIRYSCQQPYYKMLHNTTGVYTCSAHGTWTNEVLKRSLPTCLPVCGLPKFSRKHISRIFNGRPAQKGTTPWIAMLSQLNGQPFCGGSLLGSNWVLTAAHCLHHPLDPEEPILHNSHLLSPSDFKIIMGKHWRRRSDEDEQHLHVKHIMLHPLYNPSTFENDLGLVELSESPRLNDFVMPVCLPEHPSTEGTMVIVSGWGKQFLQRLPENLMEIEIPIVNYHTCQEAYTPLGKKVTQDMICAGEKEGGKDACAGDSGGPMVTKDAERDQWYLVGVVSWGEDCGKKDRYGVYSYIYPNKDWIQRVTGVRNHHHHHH

B1: Example 287: ((N-Me)G)-IC+SRSLPPIC+I-((trans-4-Fluoro)P)-D-OH (peptide)
peptide: [Sar]ICSRSLPPICI[Pro(trans-4-F)]D-OH
modifications: disulfide 3-11; N-terminus assumed
SMILES: CC[C@H](C)[C@H](NC(=O)CNC)C(=O)N[C@H]1CSSC[C@@H](C(=O)N[C@H](C(=O)N2C[C@H](F)C[C@H]2C(=O)N[C@@H](CC(=O)O)C(=O)O)[C@@H](C)CC)NC(=O)[C@H]([C@@H](C)CC)NC(=O)[C@@H]2CCCN2C(=O)[C@@H]2CCCN2C(=O)[C@H](CC(C)C)NC(=O)[C@H](CO)NC(=O)[C@H](CCCNC(=N)N)NC(=O)[C@H](CO)NC1=O
B2: Example 274: (Cyclopropylacetic acid)-IC+SRS-((tBu)A)-PPI-((N-Me)C)+I-NH2 (peptide)
peptide: {Cyclopropylacetic acid}-ICSRS[tBuAla]PPI[NMeC]I-NH2
modifications: disulfide 2-10
SMILES: CC[C@H](C)[C@H](NC(=O)[C@@H]1CSSC[C@H](NC(=O)[C@@H](NC(=O)CC2CC2)[C@@H](C)CC)C(=O)N[C@@H](CO)C(=O)N[C@@H](CCCNC(=N)N)C(=O)N[C@@H](CO)C(=O)N[C@@H](CC(C)(C)C)C(=O)N2CCC[C@H]2C(=O)N2CCC[C@H]2C(=O)N[C@@H]([C@@H](C)CC)C(=O)N1C)C(N)=O
B3: Example 278: AIC+SR-(allo-T)-LPPIC+IPD-NH2 (peptide)
peptide: AICSR[aThr]LPPICIPD-NH2
modifications: disulfide 3-11; N-terminus assumed
SMILES: CC[C@H](C)[C@H](NC(=O)[C@H](C)N)C(=O)N[C@H]1CSSC[C@@H](C(=O)N[C@H](C(=O)N2CCC[C@H]2C(=O)N[C@@H](CC(=O)O)C(N)=O)[C@@H](C)CC)NC(=O)[C@H]([C@@H](C)CC)NC(=O)[C@@H]2CCCN2C(=O)[C@@H]2CCCN2C(=O)[C@H](CC(C)C)NC(=O)[C@H]([C@H](C)O)NC(=O)[C@H](CCCNC(=N)N)NC(=O)[C@H](CO)NC1=O
B4: Example 348: GIC+SRSLPPIC+I-(Hyp)-D-OH (peptide)
peptide: GICSRSLPPICI[Hyp]D-OH
modifications: disulfide 3-11; N-terminus assumed
SMILES: CC[C@H](C)[C@H](NC(=O)CN)C(=O)N[C@H]1CSSC[C@@H](C(=O)N[C@H](C(=O)N2C[C@H](O)C[C@H]2C(=O)N[C@@H](CC(=O)O)C(=O)O)[C@@H](C)CC)NC(=O)[C@H]([C@@H](C)CC)NC(=O)[C@@H]2CCCN2C(=O)[C@@H]2CCCN2C(=O)[C@H](CC(C)C)NC(=O)[C@H](CO)NC(=O)[C@H](CCCNC(=N)N)NC(=O)[C@H](CO)NC1=O
B5: Example 276: G-((N-Me)I)-C+SRSLPPIC+IPd-OH (peptide)
peptide: G[NMeI]CSRSLPPICIP[dD]-OH
modifications: disulfide 3-11; N-terminus assumed
SMILES: CC[C@H](C)[C@@H]1NC(=O)[C@@H]2CCCN2C(=O)[C@@H]2CCCN2C(=O)[C@H](CC(C)C)NC(=O)[C@H](CO)NC(=O)[C@H](CCCNC(=N)N)NC(=O)[C@H](CO)NC(=O)[C@@H](NC(=O)[C@H]([C@@H](C)CC)N(C)C(=O)CN)CSSC[C@@H](C(=O)N[C@H](C(=O)N2CCC[C@H]2C(=O)N[C@H](CC(=O)O)C(=O)O)[C@@H](C)CC)NC1=O
B6: Example 277: ((N-Me)G)-IC+SRSLPPIC+(allo-I)-PD-NH2 (peptide)
peptide: [Sar]ICSRSLPPIC[aIle]PD-NH2
modifications: disulfide 3-11; N-terminus assumed
SMILES: CC[C@@H](C)[C@H](NC(=O)[C@@H]1CSSC[C@H](NC(=O)[C@@H](NC(=O)CNC)[C@@H](C)CC)C(=O)N[C@@H](CO)C(=O)N[C@@H](CCCNC(=N)N)C(=O)N[C@@H](CO)C(=O)N[C@@H](CC(C)C)C(=O)N2CCC[C@H]2C(=O)N2CCC[C@H]2C(=O)N[C@@H]([C@@H](C)CC)C(=O)N1)C(=O)N1CCC[C@H]1C(=O)N[C@@H](CC(=O)O)C(N)=O
B7: Example 270: AIC+SRSLP-(Oic)-(Chg)-C+IPD-NH2 (peptide)
peptide: AICSRSLP[Oic][Chg]CIPD-NH2
modifications: disulfide 3-11; N-terminus assumed
SMILES: CC[C@H](C)[C@H](NC(=O)[C@H](C)N)C(=O)N[C@H]1CSSC[C@@H](C(=O)N[C@H](C(=O)N2CCC[C@H]2C(=O)N[C@@H](CC(=O)O)C(N)=O)[C@@H](C)CC)NC(=O)[C@H](C2CCCCC2)NC(=O)[C@@H]2C[C@@H]3CCCC[C@@H]3N2C(=O)[C@@H]2CCCN2C(=O)[C@H](CC(C)C)NC(=O)[C@H](CO)NC(=O)[C@H](CCCNC(=N)N)NC(=O)[C@H](CO)NC1=O
B8: Example 367: ((N-Me)G)-IC+SRSLPPIC+I-(Oic)-D-OH (peptide)
peptide: [Sar]ICSRSLPPICI[Oic]D-OH
modifications: disulfide 3-11; N-terminus assumed
SMILES: CC[C@H](C)[C@H](NC(=O)CNC)C(=O)N[C@H]1CSSC[C@@H](C(=O)N[C@H](C(=O)N2[C@H](C(=O)N[C@@H](CC(=O)O)C(=O)O)C[C@@H]3CCCC[C@@H]32)[C@@H](C)CC)NC(=O)[C@H]([C@@H](C)CC)NC(=O)[C@@H]2CCCN2C(=O)[C@@H]2CCCN2C(=O)[C@H](CC(C)C)NC(=O)[C@H](CO)NC(=O)[C@H](CCCNC(=N)N)NC(=O)[C@H](CO)NC1=O
B9: Example 282: ((N-Me)G)-IC+SRSLPP-(Chg)-C+IPD-NH2 (peptide)
peptide: [Sar]ICSRSLPP[Chg]CIPD-NH2
modifications: disulfide 3-11; N-terminus assumed
SMILES: CC[C@H](C)[C@H](NC(=O)CNC)C(=O)N[C@H]1CSSC[C@@H](C(=O)N[C@H](C(=O)N2CCC[C@H]2C(=O)N[C@@H](CC(=O)O)C(N)=O)[C@@H](C)CC)NC(=O)[C@H](C2CCCCC2)NC(=O)[C@@H]2CCCN2C(=O)[C@@H]2CCCN2C(=O)[C@H](CC(C)C)NC(=O)[C@H](CO)NC(=O)[C@H](CCCNC(=N)N)NC(=O)[C@H](CO)NC1=O
B10: Example 275: G-((N-Me)I)-C+SRSLPPIC+IPD-OH (peptide)
peptide: G[NMeI]CSRSLPPICIPD-OH
modifications: disulfide 3-11; N-terminus assumed
SMILES: CC[C@H](C)[C@@H]1NC(=O)[C@@H]2CCCN2C(=O)[C@@H]2CCCN2C(=O)[C@H](CC(C)C)NC(=O)[C@H](CO)NC(=O)[C@H](CCCNC(=N)N)NC(=O)[C@H](CO)NC(=O)[C@@H](NC(=O)[C@H]([C@@H](C)CC)N(C)C(=O)CN)CSSC[C@@H](C(=O)N[C@H](C(=O)N2CCC[C@H]2C(=O)N[C@@H](CC(=O)O)C(=O)O)[C@@H](C)CC)NC1=O
B11: Example 313: ((N-Me)G)-IC+SRSLPPIC+I-(Abu)-D-OH (peptide)
peptide: [Sar]ICSRSLPPICI[Abu]D-OH
modifications: disulfide 3-11; N-terminus assumed
SMILES: CC[C@H](NC(=O)[C@@H](NC(=O)[C@@H]1CSSC[C@H](NC(=O)[C@@H](NC(=O)CNC)[C@@H](C)CC)C(=O)N[C@@H](CO)C(=O)N[C@@H](CCCNC(=N)N)C(=O)N[C@@H](CO)C(=O)N[C@@H](CC(C)C)C(=O)N2CCC[C@H]2C(=O)N2CCC[C@H]2C(=O)N[C@@H]([C@@H](C)CC)C(=O)N1)[C@@H](C)CC)C(=O)N[C@@H](CC(=O)O)C(=O)O
B12: Example 289: ((N-Me)G)-IC+SRSLPP-IC+I-((2-Me)P)-D-OH (peptide)
peptide: [Sar]ICSRSLPPICI[αMeP]D-OH
modifications: disulfide 3-11; N-terminus assumed
SMILES: CC[C@H](C)[C@H](NC(=O)CNC)C(=O)N[C@H]1CSSC[C@@H](C(=O)N[C@H](C(=O)N2CCC[C@@]2(C)C(=O)N[C@@H](CC(=O)O)C(=O)O)[C@@H](C)CC)NC(=O)[C@H]([C@@H](C)CC)NC(=O)[C@@H]2CCCN2C(=O)[C@@H]2CCCN2C(=O)[C@H](CC(C)C)NC(=O)[C@H](CO)NC(=O)[C@H](CCCNC(=N)N)NC(=O)[C@H](CO)NC1=O
B13: Example 286: GIC+SRSLPPIC+I-(Aib)-D-OH (peptide)
peptide: GICSRSLPPICI[Aib]D-OH
modifications: disulfide 3-11; N-terminus assumed
SMILES: CC[C@H](C)[C@H](NC(=O)CN)C(=O)N[C@H]1CSSC[C@@H](C(=O)N[C@H](C(=O)NC(C)(C)C(=O)N[C@@H](CC(=O)O)C(=O)O)[C@@H](C)CC)NC(=O)[C@H]([C@@H](C)CC)NC(=O)[C@@H]2CCCN2C(=O)[C@@H]2CCCN2C(=O)[C@H](CC(C)C)NC(=O)[C@H](CO)NC(=O)[C@H](CCCNC(=N)N)NC(=O)[C@H](CO)NC1=O
B14: Example 268: AIC+SRS-((tBu)A)-P-(Oic)-I-((N-Me)C)+IPD-NH2 (peptide)
peptide: AICSRS[tBuAla]P[Oic]I[NMeC]IPD-NH2
modifications: disulfide 3-11; N-terminus assumed
SMILES: CC[C@H](C)[C@H](NC(=O)[C@H](C)N)C(=O)N[C@H]1CSSC[C@@H](C(=O)N[C@H](C(=O)N2CCC[C@H]2C(=O)N[C@@H](CC(=O)O)C(N)=O)[C@@H](C)CC)N(C)C(=O)[C@H]([C@@H](C)CC)NC(=O)[C@@H]2C[C@@H]3CCCC[C@@H]3N2C(=O)[C@@H]2CCCN2C(=O)[C@H](CC(C)(C)C)NC(=O)[C@H](CO)NC(=O)[C@H](CCCNC(=N)N)NC(=O)[C@H](CO)NC1=O
B15: Example 262: AIC+SRSLPP-(Cpg)-C+IPD-NH2 (peptide)
peptide: AICSRSLPP[Gly(cPent)]CIPD-NH2
modifications: disulfide 3-11; N-terminus assumed
SMILES: CC[C@H](C)[C@H](NC(=O)[C@H](C)N)C(=O)N[C@H]1CSSC[C@@H](C(=O)N[C@H](C(=O)N2CCC[C@H]2C(=O)N[C@@H](CC(=O)O)C(N)=O)[C@@H](C)CC)NC(=O)[C@H](C2CCCC2)NC(=O)[C@@H]2CCCN2C(=O)[C@@H]2CCCN2C(=O)[C@H](CC(C)C)NC(=O)[C@H](CO)NC(=O)[C@H](CCCNC(=N)N)NC(=O)[C@H](CO)NC1=O

The test addresses T1, recombinant rat MASP1 active protease …. Kind of test: cell-based or functional assay.
For B1, the “rat MASP1 IC50” value stood at 250 nM.

Consider B2, for which the “rat MASP1 IC50” value came out at 89 nM.

Take B3: the “rat MASP1 IC50” value is 83 nM.

Consider B4, for which the “rat MASP1 IC50” value came out at 350 nM.

Take B5: the “rat MASP1 IC50” value turned out to be 200 nM.

Take B6: the “rat MASP1 IC50” value is 190 nM.

For the molecule B7, the “rat MASP1 IC50” value came to 170 nM.

Regarding B8, the “rat MASP1 IC50” value was 120 nM.

With B9, the “rat MASP1 IC50” value came out at 470 nM.

As for B10, the “rat MASP1 IC50” value was found to be 150 nM.

Turning to B11, the “rat MASP1 IC50” value came to 220 nM.

Take B12: the “rat MASP1 IC50” value turned out to be 180 nM.

As for B13, the “rat MASP1 IC50” value stood at 230 nM.

With B14, the “rat MASP1 IC50” value amounted to 100 nM.

B15: the “rat MASP1 IC50” value stood at 490 nM.

Values taken from US20210246166A1 (Bayer, published 2021).
